Results: patent US10877024B2, “Methods of determining interferon having direct inhibitory effects on tumors and uses thereof” (SUPERLAB FAR EAST LIMITED, priority 2015, dated 2020)
Where two headings read alike, the source gives them in different places.

Key:
colon cancer SW620 cells = assay: Cell migration assay across microporous membranes; assay type: cell-based, human; settings: 10 μg/ml, 24 hr
Protocol: (§1) The cell migration assay was performed using 8 μm cell culture inserts in 24-well plates (Becton-Dickinson Biosciences, NJ, USA). Warm (37° C.) bicarbonate based culture medium without FBS was added to the interior of the inserts and to the bottoms of the wells, and were allowed to rehydrate for 2 hr in humidified tissue culture incubator at 37° C. in 5% CO2. After rehydration, the culture medium was carefully removed. […] In the lower compartment of the 24-well plates were placed 500 μl of complete medium with 10% FBS. After 24 hr at 37° C. under the regular culture conditions, the non-migrated cells in the upper part of the chamber membranes were removed with a cotton swab. The lower part of the culture inserts were fixed with 4% paraformaldehyde and stained with 2% crystal violet. The number of migrated cells on the opposite side of the chamber membranes from where the cells were placed was counted in each of the triplicate wells. Each experiment was repeated at least two times, each time with triplicate wells.

lung cancer A549 cells = assay: Cell migration assay across microporous membranes; assay type: cell-based, human; settings: 10 μg/ml, 24 hr, untreated Mock about 30
Protocol: as §1

[1] = test system: phosphorylation of STAT1 (Tyr701), STAT2 (Tyr690), and STAT3 (Tyr705); assay: p-STAT induction after B18R pre-incubation, Western blot; assay type: cell-based, human; settings: IFN 1 ng/ml, B18R 10 ng/ml, 30 min, compared to IFNα-2b
FZD6 = assay: qPCR of Wnt-related receptor mRNA; assay type: cell-based, human; settings: 10 μg/ml, 24 hr
Protocol: The regulation of LRP6/FZD6 by rSIFN-co was investigated. This was conducted by qPCR as performed in Example 9. […] After 24 hr of treatment, total cellular mRNA was isolated using TRIZOL Reagent, and cDNA was subjected to qPCR using specific primers of LRP6 and FZD6. The primers used were: LRP6 sense primer: 5′-[…]-3′ (SEQ ID NO: 4) and antisense primer: 5′-[…]-3′ (SEQ ID NO: 5), and FZD6 sense primer: 5′-[…]-3′ (SEQ ID NO: 6) and antisense primer: 5′-[…]-3′ (SEQ ID NO: 7). Experiments were conducted in triplicate and normalized with the Mock control group. Results were recorded as relative mRNA level of either LRP6 or FZD6 relative to GAPDH.

[2] = test system: human lung cancer SPC-A4 xenografts; settings: for TV(mm^3, mean ± SD) (D 0): day 0; for % Inhibition / RTV (mean ± SD) / T/C (%) / TV(mm^3, mean ± SD) (D 21): day 21
Protocol: Under sterile conditions, well-grown tumors were cut into 1.5 mm^3 fragments and one such fragment was injected by trocar needle into the right flank of each study animal. […] Individual tumor size (length and width) was measured twice per week with microcalipers. Tumor volume (V) was calculated using the formula: V=(length×width^2)/2. Individual relative tumor volume (RTV) was calculated using the formula: RTV=Vt/V0, where Vt is the tumor volume on the day of measurement and V0 is the tumor volume on the day of first treatment. Therapeutic effect of the test article or control article was expressed in terms of T/C (%), using the formula: T/C (%)=(mean RTV of the treated group/mean RTV of the control group)×100%; and in terms of % Inhibition, using the formula: % Inhibition=100%−T/C %.
The 1.5 mm^3 fragments were then used for s.c. implantation into the test animals. The body weight of the animals averaged 22±2 g at dose initiation.

BATF2 = assay: qPCR of tumor suppressor gene; assay type: cell-based, human; settings: A549 cells, 10 mcg/ml, 24 hr
Excerpt: (§2) After 24 hr of treatment, total cellular mRNA was isolated using TRIZOL Reagent, and cDNA was synthesized, and further subjected to qPRC using specific primers for DKK3, KLF4 and BATF2. The following primers were used: for BATF2, sense primers: 5′-[…]-3′ (SEQ ID NO: 16) and antisense primers: 5′-[…]-3′ (SEQ ID NO: 17); for DKK3, sense primers: 5′-[…]-3′(SEQ ID NO: 18) and antisense primers: 5′-[…]-3′ (SEQ ID NO: 19); for KLF4, sense primers: 5′-[…]-3′ (SEQ ID NO: 20) and antisense primers: 5′-[…]-3′ (SEQ ID NO: 21).
(§3) The experiment was conducted in triplicate and normalized with the mock control group. Results, shown in FIG. 12, were expressed as relative mRNA expression level in relation to that of GAPDH.

KLF4 = assay: qPCR of tumor suppressor gene; assay type: cell-based, human; settings: 10 mcg/ml, 24 hr
Excerpt: as §2, §3

[3] = test system: human hepatoma SMMC-7721 xenografts; assay: rSIFN-co on human hepatoma SMMC-7721 xenografts in nude mice; settings: for TV(mm^3, mean ± SD) (D 0): day 0; for % Inhibition / T/C (%) / TV(mm^3, mean ± SD) (D 21): day 21
Protocol: The test article was used without dilution. It was stored at 4° C. until thawed for injection.
The animals used were 4-6 weeks old male BALB/cA nu/nu mice, weighing about 23±2 g, obtained from the Shanghai Institute of Materia Medica (Shanghai, P.R. China). […] Animals were housed 6 to a cage. They were ear-marked with ear hole punch identification. The room temperature was maintained at 25° C.±+1° C. Lighting was set at 12 hr on and 12 hr off. Food was provided ad libitum. City tap water, filtered with a 5 micrometer (μm) filter, was provided to the animals ad libitum via water bottles.
The test article was administered in a volume of 0.05 ml-0.15 ml per mouse per treatment, depending on the group to which the animal was assigned. […] Normal saline was injected in a volume of 0.15 ml per mouse, which was used as vehicle control.
Animals were assigned to treatment groups randomly. Initially, all animals were placed in one large animal cage. For assignment to the study, they were later separately housed, with 6 animals per cage per treatment group. Groups 1 and 2 are Control groups in which the animals were each administered the vehicle every other day after the first treatment. […] Tumor growth was monitored by measuring the length and width of each tumor twice a week during the course of the study. Each animal was also weighed twice a week during the course of the study.
Before commencement of this study, the xenografts were passaged twice in nude mice. Under sterile conditions, well-grown tumors were cut into 1.5 mm^3 fragments and one such fragment was injected by trocar needle into the right flank of each study animal. […] Individual tumor size (length and width) was measured twice per week with microcalipers. Tumor volume (V) was calculated using the formula: V=(length×width^2)/2. Individual relative tumor volume (RTV) was calculated using the formula: RTV=Vt/V0, where Vt is the tumor volume on the day of measurement and V0 is the tumor volume on the day of first treatment. Therapeutic effect of the test article or control article was expressed in terms of T/C (%), using the formula: T/C (%)=(mean RTV of the treated group/mean RTV of the control group)×100%; and in terms of % Inhibition, using the formula: % Inhibition=100%−T/C %.

A549 xenograft tumors = assay: Tumor growth of A549 xenografts in nude mice; assay type: in vivo, BALB/c nude mice; settings: 100 μg/100 μl per mouse intratumorally, every other day, 12 times; vs PBS
Protocol: This experiment was conducted in accordance to the National Institutes of Health Guide for the Care and Use of Laboratory Animals. Female BALB/c nude mice, 4-5 weeks old, were obtained from Shanghai Experimental Animal Center (Shanghai, China). About 5×10^6 A549 cells were subcutaneously injected into each mouse to establish xenograft tumors. […] The tumors were measured every three (3) days and the tumor volumes were calculated as follows: tumor volume (mm^3)=(length×width^2)/2. Data are shown as Mean±SD (n=8).

[4] = test system: beta-catenin/TCF mediated transcriptional activity; assay: Beta-catenin/TCF transcription reporter assay (TOPFlash); assay type: cell-based, human; settings: 10 mcg/ml, 24 hours
Protocol: The effect of rSIFN-co on Wnt/Beta-catenin signaling in vitro was determined. Cancer cells were plated in 96-well plates (at 1×10^4 cells per well), and incubated for 12 hours, after which they were transiently transfected with 100 ng TOPFlash (Millipore Corporation, Billerica, Mass., USA). […] After interferon treatment for 24 hours, luciferase assay was performed using the Dual Luciferase Assay System kit according to the manufacturer's protocols (Cat #:E1960, Promega). Relative luciferase activity was reported as a ratio of firefly/renilla luciferase activity. Experiments were performed in triplicate.

SW620 tumor cells = assay: Cell viability, MTT assay, 1-6 days; assay type: cell-based, human; settings: 10 μg/ml
Protocol: The cell survival rate was evaluated in a standard MTT assay [3-(4,5-dimethylthiazol-2-yl)-2,5-diphenyltetrazolium bromide assay, Sigma, St. Louis, Mo.). For the assay, about 20 μl MTT (at 4 mg/ml) was added to each well. The cells were incubated at 37° C. for 4 hr. After that, the supernatant of each well was drawn off carefully and then an equal volume (150 microliter) of dimethyl sulfoxide (DMSO) was added to each well and mixed thoroughly on a shaker for 15 min. The absorbance from the plates was read at 595 nm with a Thermo Scientific Microplate Reader (Thermo Fisher Scientific Inc., Lowell, Mass.). The relative cell viability was calculated as follows: Cell viability=(Treated group(OD595) minus blank(OD595))/(Control group(OD595) minus blank(OD595))×100%.

DKK-3 = assay: qPCR of tumor suppressor gene; assay type: cell-based, human; settings: A549 cells, 10 mcg/ml, 24 hr
[5] = 0.05 mg/mouse i.t. every other day
[6] = 0.10 mg/mouse i.t. every other day
[7] = 0.15 mg/mouse i.t. every other day

B1: rSIFN-co: Recombinant super-compound interferon; amino acid sequence SEQ ID NO: 1 (same as INFERGEN), encoded by novel nucleotide sequence SEQ ID NO: 2 (protein)
chain: MCDLPQTHSLGNRRALILLAQMRRISPFSCLKDRHDFGFPQEEFDGNQFQKAQAISVLHEMIQQTFNLFSTKDSSAAWDESLLEKFYTELYQQLNDLEACVIQEVGVEETPLMNVDSILAVKKYFQRITLYLTEKKYSPCAWEVVRAEIMRSFSLSTNLQERLRRKE
modifications: Amino acid sequence of recombinant interferon
**Q.** Which results are given for B1?
**A.** tumor cell migration (colon cancer SW620 cells): Significant inhibition; mean number of migrating cells per field (lung cancer A549 cells): about 10 cells per field; induction of phosphorylation on STAT1/2/3 after B18R pre-incubation ([1]; A549 cells): greater induction of phosphorylation on STAT1/2/3; induction of phosphorylation on STAT1/2/3 after B18R pre-incubation ([1]; Hela cells): greater induction of phosphorylation on STAT1/2/3; relative expression of FZD6 mRNA (FZD6; A549 cells): significant reduction; relative expression of FZD6 mRNA (FZD6; H460 cells): significant reduction; relative expression of FZD6 mRNA (FZD6; HT-29 cells): significant reduction; relative expression of FZD6 mRNA (FZD6; SW620 cells): significant reduction; mortality [2, 5]: one mouse in the 0.05 mg rSIFN-co-treated group died on day 17; TV(mm^3, mean ± SD) (D 0) [2, 5]: 170 ± 41 mm^3; % Inhibition [2, 5]: 63.68%; RTV (mean ± SD) [2, 5]: 15.45 ± 9.07; T/C (%) [2, 5]: 36.32%; TV(mm^3, mean ± SD) (D 21) [2, 5]: 2244 ± 1043 mm^3; TV(mm^3, mean ± SD) (D 0) [2, 6]: 168 ± 49 mm^3; % Inhibition [2, 6]: 64.95%; RTV (mean ± SD) [2, 6]: 14.91 ± 11.19; T/C (%) [2, 6]: 35.05%; TV(mm^3, mean ± SD) (D 21) [2, 6]: 2388 ± 1544 mm^3; TV(mm^3, mean ± SD) (D 0) [2, 7]: 169 ± 40 mm^3; % Inhibition [2, 7]: 67.75%; RTV (mean ± SD) [2, 7]: 13.72 ± 3.96; T/C (%) [2, 7]: 32.25%; TV(mm^3, mean ± SD) (D 21) [2, 7]: 2284 ± 653 mm^3; tolerability, signs of toxicity or weight loss ([2]; 0.05-0.15 mg/mouse i.t. every other day, 21 days): no signs of toxicity or weight loss were observed; relative mRNA expression level of BATF2 (BATF2): dramatically increased; relative mRNA expression level of KLF4 (KLF4; A549 cells): dramatically increased; relative mRNA expression level of KLF4 (KLF4; SW620 cells): dramatically increased as compared to control and IFN alpha-2b treatment; TV(mm^3, mean ± SD) (D 0) [3, 5]: 124 ± 26 mm^3; % Inhibition [3, 5]: 48.01%; T/C (%) [3, 5]: 51.99%; TV(mm^3, mean ± SD) (D 21) [3, 5]: 592 ± 139 mm^3; TV(mm^3, mean ± SD) (D 0) [3, 6]: 124 ± 15 mm^3; % Inhibition [3, 6]: 52.20%; T/C (%) [3, 6]: 47.80%; TV(mm^3, mean ± SD) (D 21) [3, 6]: 573 ± 287 mm^3; TV(mm^3, mean ± SD) (D 0) [3, 7]: 123 ± 20 mm^3; % Inhibition [3, 7]: 56.80%; T/C (%) [3, 7]: 43.20%; TV(mm^3, mean ± SD) (D 21) [3, 7]: 505 ± 226 mm^3; inhibition of tumor growth (tumor volume) (A549 xenograft tumors): almost completely inhibit growth of established tumors; Firefly/Renilla ratio ([4]; A549 cells, Control about 310): about 100; Firefly/Renilla ratio ([4]; H460 cells, Control about 450): about 280; Firefly/Renilla ratio ([4]; H1299 cells, Control about 800): about 500; Firefly/Renilla ratio ([4]; HT-29 cells, Control about 300): about 200; Firefly/Renilla ratio ([4]; SW620 cells, Control about 1500): less than 100; cell viability over time (MTT) (SW620 tumor cells): strongly decreased cell viability of SW620 cells in a time-dependent manner; relative mRNA expression level of DKK-3 (DKK-3): dramatically increased
